Six molecules from patent EP4793286A1 (Shanghai Scizeng Medical Technology Co., Ltd., dated 2026) can be followed below.

The chains are these.
B1: 1C4-zu1-hIgG1 DD (antibody)
heavy: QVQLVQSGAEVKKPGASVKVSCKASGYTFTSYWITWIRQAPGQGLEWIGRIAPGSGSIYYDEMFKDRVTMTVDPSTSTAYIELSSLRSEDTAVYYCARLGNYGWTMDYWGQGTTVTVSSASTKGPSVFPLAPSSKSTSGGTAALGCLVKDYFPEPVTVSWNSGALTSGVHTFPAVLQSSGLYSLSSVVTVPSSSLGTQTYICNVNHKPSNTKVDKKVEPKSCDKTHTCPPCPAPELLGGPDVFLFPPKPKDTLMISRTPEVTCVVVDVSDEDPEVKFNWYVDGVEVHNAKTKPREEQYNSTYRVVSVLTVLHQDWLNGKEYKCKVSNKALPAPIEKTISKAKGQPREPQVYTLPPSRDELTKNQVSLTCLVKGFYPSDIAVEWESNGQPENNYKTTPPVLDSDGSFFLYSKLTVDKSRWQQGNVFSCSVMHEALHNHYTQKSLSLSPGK
light: DIVMTQSPKSLAVSLGERATINCKASQSVTNNVAWYQQKPGQPPKLLIYYVSNRYTGVPDRFSGSGYGTDFTLTISSLQAEDVAVYFCQQDYSSWTFGGGTKVEIKRTVAAPSVFIFPPSDEQLKSGTASVVCLLNNFYPREAKVQWKVDNALQSGNSQESVTEQDSKDSTYSLSSTLTLSKADYEKHKVYACEVTHQGLSSPVTKSFNRGEC
notes: Fc mutant of 1C4-zu1-hIgG1 with S239D/H268D (EU numbering)
B2: 1C4-zu1-hIgG1 (antibody)
heavy: not shown
light: B1 light
notes: Humanized form of B1-1C4-H1L1; human IgG1 / kappa
B3: 1B5-zu1-hIgG1 (antibody)
heavy: not shown
light: EIVLTQSPATLSLSPGERATLTCRASSSVSSSYLLWYQQKSGAAPRLWIYSTSNLASGVPARFSGSGSGTDFTLTISSLEPEDFATYYCQQYSGYPLTFGQGTKLEIKRTVAAPSVFIFPPSDEQLKSGTASVVCLLNNFYPREAKVQWKVDNALQSGNSQESVTEQDSKDSTYSLSSTLTLSKADYEKHKVYACEVTHQGLSSPVTKSFNRGEC
notes: Humanized form of B1-1B5-H1L1; human IgG1 / kappa
B4: 1B5-zu1-hIgG1 DD (antibody)
heavy: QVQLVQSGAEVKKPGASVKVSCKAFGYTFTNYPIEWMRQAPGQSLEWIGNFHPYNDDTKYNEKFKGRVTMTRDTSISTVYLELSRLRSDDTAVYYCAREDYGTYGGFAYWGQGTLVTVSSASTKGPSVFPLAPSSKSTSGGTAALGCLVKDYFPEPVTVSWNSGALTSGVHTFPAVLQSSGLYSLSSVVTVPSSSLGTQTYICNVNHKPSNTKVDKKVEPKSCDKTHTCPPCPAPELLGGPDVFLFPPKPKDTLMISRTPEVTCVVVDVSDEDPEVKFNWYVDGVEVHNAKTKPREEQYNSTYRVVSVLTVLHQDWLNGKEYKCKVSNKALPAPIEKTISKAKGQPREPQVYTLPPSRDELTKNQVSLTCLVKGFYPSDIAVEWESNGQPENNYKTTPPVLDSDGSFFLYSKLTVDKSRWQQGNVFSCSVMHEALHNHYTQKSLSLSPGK
light: B3 light
notes: Fc mutant of 1B5-zu1-hIgG1 with S239D/H268D (EU numbering)
B5: B1-1B5-H1L1 (antibody, human IgG1, kappa, V domains shown)
VH: EVQLQQSGAELVKPGASVKMSCKAFGYTFTNYPIEWMKQSHGKSLEWIGNFHPYNDDTKYNEKFKGKAKLTVEKSSSTVYLELSRLTSDDSAVYYCAREDYGTYGGFAYWGQGTLVTVSS
VL: EITVTQSPAIMSASPGEKVTMTCRASSSVSSSYLLWYQQKSGASPKLWIYSTSNLASGVPARFSGSGSGTSYSLTISSVEAEDAATYYCQQYSGYPLTFGAGTKLELKR
B6: B1-1C4-H1L1 (antibody, human IgG1, kappa, V domains shown)
VH: EVQLQQSGDDLVKPGASVKLSCKASGYTFTSYWITWIKQRPGQGLEWIGRIAPGSGSIYYDEMFKDKATLTVDPSSSTAYIQLSSLSSEDSAVYFCARLGNYGWTMDYWGQGTSVTVSS
VL: DIVMTQTPKFLLVSAGDRVTITCKASQSVTNNVAWYQQAPGQSPKLLIYYVSNRYTGVPDRFAGSGYGTDFTFTISTVQAEDLAVYFCQQDYSSWTFGGGTKLEIKR

T1 sequence (P08637 17-208): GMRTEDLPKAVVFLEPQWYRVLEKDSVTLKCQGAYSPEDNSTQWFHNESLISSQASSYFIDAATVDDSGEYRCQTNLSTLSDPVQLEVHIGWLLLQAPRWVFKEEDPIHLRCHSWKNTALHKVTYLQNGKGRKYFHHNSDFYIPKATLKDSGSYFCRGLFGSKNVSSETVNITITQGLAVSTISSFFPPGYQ
T3 sequence (P08637 17-208 F176V): as the sequence (P08637 17-208) above, with F160V counted along it

One experiment has as its target T1, hCD16A(158F)-ECD-C-his (human, UniProt P08637 17-208).
T1 construct: extracellular domain; Homemade; not shown: C-terminal His tag
In words: SPR; ratio against 1C4-zu1-hIgG1; end of the range assigned by Table 9. Background: Surface plasmon resonance follows binding to a sensor surface in real time, without labels.
Regarding B1, the “fold higher affinity than the antibody without DD” value was in the range of 3 to 6 fold.

The next experiment deals with T2, hCD32B (ECD, His tag, Sino Biological, 10259-H08C) (human, UniProt P31994 43-217).
T2 construct: extracellular domain; Bought protein; not shown: His tag
T2 sequence (looked up): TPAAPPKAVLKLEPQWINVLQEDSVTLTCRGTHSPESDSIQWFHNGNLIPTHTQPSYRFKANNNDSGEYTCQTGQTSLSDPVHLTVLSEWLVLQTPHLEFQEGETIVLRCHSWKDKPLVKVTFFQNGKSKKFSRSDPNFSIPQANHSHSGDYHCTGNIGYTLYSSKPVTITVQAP
As to the kind of experiment: SPR (Biacore 8K), His-tagged Fc receptor captured by anti-His antibody on CM5 chip, antibody flowed as analyte.
In the case of B2, the Kd stood at 10000 nM.
The same measure, in the same setting: to B1 belongs 1680 nM; to B3, 13400 nM.
The molecule B4 yielded a Kd of 1530 nM.

Another experiment has as its target T3, hCD16A(158V)-ECD-C-his (human, UniProt P08637 17-208).
T3 construct: extracellular domain; Homemade; not shown: C-terminal His tag
The description is as above.
Consider B2, for which the Kd worked out at 80.2 nM, the koff was 0.00775 s⁻¹ and the kon came out at 96600 M⁻¹ s⁻¹.
On to B1, for which the Kd came out at 25.4 nM, the koff was found to be 0.0113 s⁻¹ and the kon turned out to be 445000 M⁻¹ s⁻¹.
In the same order, the values of B3 are 83 nM, 0.00798 s⁻¹ and 96100 M⁻¹ s⁻¹.
As for B4, binding was put at a Kd of 21.5 nM, the koff came out at 0.0103 s⁻¹ and the kon was found to be 481000 M⁻¹ s⁻¹.

In the next experiment the target is T4, PD1 on Jurkat-PD1-NFAT reporter cells (UniProt Q15116 25-288, limits assumed). As to the kind of experiment: cell-based or functional assay.
T4 sequence (Q15116 25-288 limits assumed): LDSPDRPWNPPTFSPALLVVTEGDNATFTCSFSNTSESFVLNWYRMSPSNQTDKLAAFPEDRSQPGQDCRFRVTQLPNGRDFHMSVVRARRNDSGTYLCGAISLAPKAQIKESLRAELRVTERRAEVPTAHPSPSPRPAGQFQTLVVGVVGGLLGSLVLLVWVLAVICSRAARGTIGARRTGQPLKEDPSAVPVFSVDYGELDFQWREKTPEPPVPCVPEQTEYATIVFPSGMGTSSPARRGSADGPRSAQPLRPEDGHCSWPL
As to B2, the “EC50 of inhibition of Jurkat-PD1-NFAT reporter cell activation” value was 0.12 nM.
On the same count and under the same terms, the same measure for B1: 0.16 nM; for B3: 0.13 nM; for B4: 0.15 nM.

The target in the next experiment is T5, hPD-1 on CHOS-hPD-1 cells (Homo sapiens, UniProt Q15116 25-288). In words: flow cytometry on CHOS-hPD-1 cells, MFI, 4-parameter fit. (A flow cytometer gives signals particle by particle.)
T5 sequence (Q15116 25-288 limits assumed): as above
Take B2: a half-maximal effect (EC50) was put at 14.3 nM.
Same read-out and setting: to B1 belongs 13.7 nM; to B3, 11.9 nM.
For the molecule B4, the half-maximal effective concentration (EC50) was determined as 12.1 nM.

A further experiment deals with T6, hCD32A (167 His, His Tag, Sino Biological, 10374-H08C1) (human, UniProt P12318 34-218).
T6 construct: Bought protein; not shown: His tag
T6 sequence (looked up): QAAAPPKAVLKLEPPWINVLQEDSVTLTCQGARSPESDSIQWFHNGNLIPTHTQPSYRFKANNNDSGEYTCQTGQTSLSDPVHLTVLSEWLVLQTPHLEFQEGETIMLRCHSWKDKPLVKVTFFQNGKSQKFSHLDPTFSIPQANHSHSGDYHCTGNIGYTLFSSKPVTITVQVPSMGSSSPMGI
In words: SPR; ratio against 1C4-zu1-hIgG1; end of the range assigned by Table 7.
In the case of B1, the “fold higher affinity than the antibody without DD” value lay in the range of 3 to 4 fold.

The next experiment has as its target T5, hPD-1 on CHOS-hPD-1 cells. In words: cell-based or functional assay.
As to B2, the “EC50 of ADCC (LDH release, human NK cells, target cells CHOS-hPD-1)” value worked out at 0.0019 nM.
Same read-out and setting: to B1 belongs 0.00033 nM.
Regarding B3, the “EC50 of ADCC (LDH release, human NK cells, target cells CHOS-hPD-1)” value stood at 0.00512 nM.
Still for that read-out and setting: to B4 belongs 0.00044 nM.

The target in another experiment is T7, cPD-1 on CHOS-cPD-1 cells (Macaca fascicularis, UniProt Q15116 25-288 (human entry)).
T7 chain: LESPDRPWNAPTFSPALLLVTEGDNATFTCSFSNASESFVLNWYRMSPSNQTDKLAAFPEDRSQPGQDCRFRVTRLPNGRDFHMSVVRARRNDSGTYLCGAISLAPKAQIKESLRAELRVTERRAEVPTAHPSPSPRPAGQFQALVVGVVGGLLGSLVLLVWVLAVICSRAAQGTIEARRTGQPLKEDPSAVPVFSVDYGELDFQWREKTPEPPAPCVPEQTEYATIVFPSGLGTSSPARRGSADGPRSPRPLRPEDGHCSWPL
In words: flow cytometry on CHOS-cPD-1 cells, MFI, 4-parameter fit.
On to B2, for which the EC50 was determined as 20.3 nM.
Same read-out and setting: the same measure for B1: 20.1 nM; for B3: 20.2 nM; for B4: 19.9 nM.

In a further experiment the target is T4, PD1 on Jurkat-PD1-NFAT reporter cells. As to the kind of experiment: cell-based or functional assay. The source holds these as a separate data set.
On to B5, for which the “EC50 of inhibition of Jurkat-PD1-NFAT reporter cell activation” value stood at 0.12 nM.
As for B6, the “EC50 of inhibition of Jurkat-PD1-NFAT reporter cell activation” value worked out at 0.14 nM.

For a further experiment, the target named is T8, cPD-1 ECD-Avi-His (Macaca fascicularis, UniProt Q15116 25-170 (human entry)).
T8 construct: tied to the construct by its name only; not shown: Avi tag and His tag
T8 chain: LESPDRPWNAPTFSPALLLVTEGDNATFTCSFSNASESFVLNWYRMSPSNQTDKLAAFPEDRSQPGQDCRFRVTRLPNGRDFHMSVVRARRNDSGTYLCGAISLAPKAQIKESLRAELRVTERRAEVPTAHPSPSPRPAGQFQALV
As to the kind of experiment: SPR (Biacore 8K), antibody captured on Protein A chip, antigen flowed as analyte.
In turn, B2 came in with a dissociation constant Kd of 15.6 nM, an off-rate constant (koff) of 0.00392 s⁻¹ and a kon of 251000 M⁻¹ s⁻¹.
For B1, in that order: 15.2 nM, 0.00393 s⁻¹ and 259000 M⁻¹ s⁻¹.
In the same order, the values of B3 are 38.5 nM, 0.00841 s⁻¹ and 219000 M⁻¹ s⁻¹.
Consider B4, for which binding was put at a Kd of 35.1 nM, the dissociation rate constant (koff) is 0.00856 s⁻¹ and the kon amounted to 243000 M⁻¹ s⁻¹.

The target of another experiment is T6, hCD32A (167 His, His Tag, Sino …). In words: SPR (Biacore 8K), His-tagged Fc receptor captured by anti-His antibody on CM5 chip, antibody flowed as analyte.
B2 displayed an equilibrium dissociation constant (Kd) of 4940 nM.
The same measure, in the same setting: the same measure for B1: 1610 nM.
Still for that read-out and setting: the same measure for B3: 5430 nM; for B4: 1470 nM.

Another experiment deals with T9, hPD-1 ECD-Avi-His (human, UniProt Q15116 25-170).
T9 construct: tied to the construct by its name only; not shown: Avi tag and His tag
T9 sequence (Q15116 25-170): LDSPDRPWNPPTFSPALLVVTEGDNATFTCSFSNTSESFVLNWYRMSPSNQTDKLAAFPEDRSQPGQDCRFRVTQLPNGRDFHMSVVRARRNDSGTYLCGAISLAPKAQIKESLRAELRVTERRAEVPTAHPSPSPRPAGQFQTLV
In words: SPR (Biacore 8K), antibody captured on Protein A chip, antigen flowed as analyte.
In the case of B2, the Kd is 8.26 nM, the koff came out at 0.00195 s⁻¹ and the kon was found to be 236000 M⁻¹ s⁻¹.
In the same order, the values of B1 are 8.05 nM, 0.00194 s⁻¹ and 240000 M⁻¹ s⁻¹.
For B3, in that order: 11.8 nM, 0.0024 s⁻¹ and 204000 M⁻¹ s⁻¹.
The molecule B4 yielded a Kd of 11.1 nM, a koff of 0.00231 s⁻¹ and a kon of 209000 M⁻¹ s⁻¹.

A further experiment deals with T2, hCD32B (ECD, His tag, Sino Biological, …). As to the kind of experiment: SPR; ratio against 1C4-zu1-hIgG1; end of the range assigned by Table 8.
In the case of B1, the “fold higher affinity than the antibody without DD” value was 6 to 9 fold.

Another experiment has as its target T1, hCD16A(158F)-ECD-C-his. In words: SPR (Biacore 8K), His-tagged Fc receptor captured by anti-His antibody on CM5 chip, antibody flowed as analyte.
Regarding B2, the Kd was found to be 222 nM, the koff was 0.0248 s⁻¹ and the kon is 112000 M⁻¹ s⁻¹.
As for B1, binding was characterised by a dissociation constant (Kd) of 62.7 nM, the koff was 0.0423 s⁻¹ and the kon was 674000 M⁻¹ s⁻¹.
For B3, in that order: 326 nM, 0.03 s⁻¹ and 92100 M⁻¹ s⁻¹.
For B4, in that order: 51.8 nM, 0.0354 s⁻¹ and 684000 M⁻¹ s⁻¹.

The next experiment deals with T2, hCD32B (ECD, His tag, Sino Biological, …). In words: SPR; ratio against 1B5-zu1-hIgG1; end of the range assigned by Table 8.
As for B4, the “fold higher affinity than the antibody without DD” value fell in the range of 6 to 9 fold.

Another experiment has as its target T3, hCD16A(158V)-ECD-C-his. As to the kind of experiment: SPR; ratio against 1B5-zu1-hIgG1; end of the range assigned by Table 10.
For the molecule B4, the “fold higher affinity than the antibody without DD” value is 3 to 4 fold.

The target in another experiment is T3, hCD16A(158V)-ECD-C-his. In words: SPR; ratio against 1C4-zu1-hIgG1; end of the range assigned by Table 10.
With B1, the “fold higher affinity than the antibody without DD” value is 3 to 4 fold.

The target in another experiment is T1, hCD16A(158F)-ECD-C-his. As to the kind of experiment: SPR; ratio against 1B5-zu1-hIgG1; end of the range assigned by Table 9.
In the case of B4, the “fold higher affinity than the antibody without DD” value is 3 to 6 fold.

For the next experiment, the target named is T6, hCD32A (167 His, His Tag, Sino …). In words: SPR; ratio against 1B5-zu1-hIgG1; end of the range assigned by Table 7.
In the case of B4, the “fold higher affinity than the antibody without DD” value lay in the range of 3 to 4 fold.

In general, Kd refers to the free concentration of one partner at which half of the binding sites on the other are occupied at equilibrium, for simple one-to-one binding. Higher therefore signals a looser complex. A word on the koff: it is the rate constant with which the complex falls apart. Read a low koff as a long-lived complex. One may read the kon as a measure of how fast the partners come together. The low end stands for slow association, the high end for fast association. The term EC50 denotes the concentration needed to bring the measured effect to its halfway point. The low end stands for an effect from little substance, the high end for a need for much substance.
